# According to the NTF2 design screens of Basanta et al. (2020):
# Test: protease stability score; higher = more stable; yeast display proteolysis, trypsin and chymotrypsin;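 note: log10 excess protease needed over predicted unfolded state with 0 meaning unfolded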
row,Sequence,protease stability score
1,DDRELDHAKKVAERNDPDKLRKLADPNAHLTVGDKKIHGMHNAAQKVVSMWEQADHVDIKHVDQHNGRVRVEFRFVVNGREMEMVMRFEVKNGHIKRLQLEFTSEELQKKFDKLAD,0.57
2,DDRELEDVQRVVETGDPDKLNDLADKDARMQVGDHKVRGSDQVRSLMDKLKKRIDHYDVKSITIRNGRLDATVVFVINGEEIEVRIVLRVHNGRLKEMSIHATSERVQTILKKAMS,0.803
3,DDREMKKFAEQYARNLTRNDEDSLKDLFDENAEVTIGDKQVRGQEKIKSLLHQLHQQVDHFDLRRVDAQGDDIKIVVLWNHNGKHLNVTISMRVHNGRIKSATDHVRSEDDERKFKR,0.569
4,DDREQAQKFMDLFEDAIKDGDPRQAEELAPPDAKARYGDKKLTGMHDIARHFIDEVKRVDHHRVTYKDIKNEGNKFVFTFVYTFKHNGQSDDKQVRVEAENHNGRLLVTSIHDT,0.724
5,DDRERAERYLRQVENALHTNDPRQLKNQADKDVKIEIGETDLHGTKDFVKMMKEIINRADHARFTVRSVRRHGDKMRVEFTAEVNHNGRRRTHTIRITLQLENGDVVLQSLRVE,0.302
6,DDREVDKVEELLKTGDFLKMANRADKNARMQIGDKEYRGREHVQDAAKRLDRQVDTEKVTDLRTDGEKVLVHYIQHFDGQNLEVDVEFHFHNGRLQEVVFHVRDPKKQKEFDKRVG,-0.235
7,DDREVVDRALKELRSILHEGDEEQMHRNFPPEASVKYGDTEYTGMESAAHLIIELRKRVDHMEQRVTTVNVRNGTVDVDMSADVRHNGREDSIKVKLILRISNGRAQLEQVINP,1.18
8,DDRHEMKTALKQLIDAIRQGNPDTIMSLLDPNVTFTYGDQNIRGREHVNTELVHRRNRVDNVHVNLQDIDQDGEKLHARFQMVLRRNGRNDTRDMVLVAQVHNGKARIRRLHHG,0.557
9,DDRHLHHRAREWAEQLKTNDEDELTKYVDPNARMRVGDKSVHGREKLQEQIHRDNERVDNVEIRSIRIENGTVNIRQVNDVNGRNDDFRVRMHIHNGQLKVNERHSP,-0.38
10,DDRHLQQLASIAAKALRTGNPKDMKKLVDPNAKMHYGDKEVHGREQMADVLRRIRRDADHIDLRSYSADNGRISIDMDLRVNGKKVRIIVKAEVHNGKVTHVTVDTK,0.766
11,DDRHVQKRLKTFIHILRTGDPQKISNLVDPNAEIQVGDKEYHGRHEIRKLIEELKTRVDHIDVVDMKAEGDKARANLNVNVNGHDIRFVVQLVWDNGHVKSVRIKYRNERVERQEKG,1.61
12,DDRIKELADRFMNALQTNDPDKINNLVDPNAKITVGDKSVRGDEQINRTMDQRKRELRQDYDVRSVEVHGNTAIIDVHVTFEHNGEPHKEKQTIIIHVKNGRAVDIKITRHS,-0.326
13,DDRIRQVVEEWWKAVETNDPDKAKENVDKDVRVEVGDKQFRGSETLEKRIRDEKDHARVVVRMQSVSVHGDTVDVTYNVVVEVNGNPLRFKAQAFFRARNGRMQSIQFSFSKEDKKRVDG,0.916
14,DDRLNEMARRFITLLTTGDPKEAHKYMDENARFQIGDERYHGMHEFERLLTERQKTSRVQINSLEVQHEPNRANIHADVENERNGQPRRFDVIIELHAHNGRIKEITYEYRQ,-0.009
15,DDRLREVFEHIVELFKTGNPEELSRNVDPNARYQYGDKELHGRDHYRREVKDLIDTMRYEQEVDKVQKRGEKVRIEAEARHKENGRPNEFTFVIEFKAHNGKVKHEVQHESS,-0.15
16,DDRNKHIFKKIIEAERTGDEDKLRQNFDPNARFRIGNQTYHGREHWADRVSDLRKKIRVEIKIKRVQVDGDKVVVKYQVVYNVNGRPKKDTFRVVLHFQNGKAKHRTFQIDEERKEHLDS,0.252
17,DDRNNHRAKTFLTALNHNDPDQMERMVDENAQVQVGDKSYRGREDMKRWLKELIDSIRLEVHVHSLTQHNGVAVADIEETRESNGDPEEDSFTLYIQVHNGQAKRLEESKKS,0.552
18,DDRNQAEKQVDEMRKIAKTGDEDRMADLFIDNPRFNVGDETYHGREQVVKYFRDTFRQVDHMHITLRRLSVHNGRVKAEFDVTLNRNGRETKDIFVVIQVKHNGTLRIESVHQK,0.781
19,DDRQIEVLKDYIKAVQQNDPDRMRQNADPNATFNVGDKRYHGMTEYAEEVAKHLKEMRFEIRDIRLRDHNGKVHVEYEAEYEVNGQPFTQKVSFVAEVTNGHVKRVHYSTDEDLTRIEQK,-0.24
20,DDRQMDHFAHQFERNNPDEYRKMLDPNARAEYGDKDYSGREQVQTLADTLHKQFDHLEVKDYRFNNGRAEFRYEAKFNGKTLTMKMVAEVKNGHIKHVVFRVTDPRQRKDLQREFG,0.156
21,DDRQQRVMEKILTAVQKGDEKKVKDQMDPNVKVHVGEFHYQGEEQLEKTLRHRTKELEIEYREITFRVDNGNVHVDVKAQLNNNGKPQQFTQHFSAEVDGDRVKTVHVEVKQ,-0.533
22,DDRQRRQFAERVQKVLRTGDPERFMQMADENVQVHVGDQTYRGRDQAEKNMREFVKRVDHLQIISFHFEGNHAVIVFIAHFDGKEATIEMVIRFSNGHIKEMKINPDQIRQMRS,1.21
23,DDRQVEELVRIMQRGNFKDLASNLDENVHVKVGNRTYHGREKAETVFNRLQQRIDHYEIIHVQERPNRAQVRFRFRVNGRTVEATVKAQAHNGRIKEMNLQARDEDAQREIDHAID,1.24
24,DDRQVERLAKEVVKNLETGNPNEFMKLMDPNAKFEVGDQDIHGREQWSEWVDHLSKHVDSLEVKSVTAHNGRVDIDMVFRVNGEKRVVKIVITVKNGHIKEMEIREQ,1.2
25,DDRRLAQEMANQFRKIRETGNPDDIVQLADPNAKYRIGERDVHGKEEIKKDFQEEKDRVDRIEVEIDSIEVKNGEVRVTFILRRTHNGRRESRTLVMNARVDNGRLTMESATEK,-0.205

row,Sequence,protease stability score
1,DDRTKMQELLDKLREAAEDGDRRKVHQLFDENARFEIGDTEFHGMTSAAKRLAEEWKRHDHVQFSVREIRVEPGRFVVHMQERNSHNGKSDSKNVVMTVTKSNGQIRATKVKVR,0.387
2,DDRTQKRLAEEVVRILNRGDEDQIRKMADKDVKARVGEQSVHGRETALRLLIEFNRRVDHVDIRHVHTEEGRVEVDLVAEVNGRRIRMHIVFILHNGKLHKVEMDPDELRKLEK,0.868
3,DDRVADLLRKWWEAVRTGDPDRAANQVDPNAKVEYGDKQVHGREQIRTELDERKRNAKFEYKIKTYNKDEDHVKVEAEAVVVINGRPHKFTYQVHARADGDKIKHMRIELPEDVLHEMQG,0.553
4,DDRVLHEMVKVMETGDFEKFARLADPNATIEYGDKKIHGREDAEKFATKIKQRVDHVQIKTYSVKGDSARIHFELNVNGSRIDMVLVLQVKNGRLRRASFEFRDREDSKEFVKRVH,0.068
5,DDSAMRQIHDLLRHIETGNEKEVSKQMDPNARLQIGDQVYHGNEQARRAWKRERDEIRISIKRVRMDAKGDKVFIEMDLVREKDGTPDRLTMRITVQQHDGRVKDLVQEERR,0.07
6,DDSANERAKKVMHALKTGDPDTMSELLDPNATVDVGEKQVKGMDNIVDILRKERDQIRYSIDVKRMNAKGDKVVVDATRESHHNGQPRSWHFTIFFNNTNGRVKNLKVEESG,0.626
7,DDSDVNQAQTIWKHWQQGNFREIAKNADPNVKINVGDKQYHGREEYESDMQEHRNQIRVKITSMSQNKNGDKAVVDAVIVNEENGEPEEKRFVWYIKAHNGRIVSFRVEDEK,0.176
8,DDSEIRTLAKQLAHVIETGDHEHFRKMAPPDVRARIGETEYHGREQVAEALKQERRTADHVQVEDVKASGNNVTLIITQKENGRRDRFKMVFEFHNGKVKFVSQEKQ,-0.189
9,DDSENRNFHQFVRDWTTGNPEKLAELADENARVNVGDKTVHGRDHIRTLFEKLIRRMDIELRDVKFQKSNGEISIKARMVLNENGRPKEFVMKNNAQAEGEKIKNFVLNDDS,0.048
10,DDSFVEKLQELLEDGNFERVADMADPNAQFRYGNRDLHGREELRKDAREFLSRVDHYQVDSFHVDNGQLNVTAQATFDGRDYKFTMTLRAKNGRVKSFKISFTSEQQNRQLDEKRE,-0.004
11,DDSKAEKFARDYVKNLHRGNQDQLARMVDPNVHFEYGDKQVHGREDYKQFNRRLRERVDHIQLKDFRIQGEKIRIEANFNVNGVNADIVFNFQIENGRVTRANMHFRSEDQEKQFHQ,0.161
12,DDSKERSNLEKFAKALETGDPKKLQQQLDPDARMQIGDKTYHGRHDMEKWLEEFNRQADHYQIDTFDQHNGTLNIQMRMNINGNTVSMTVNVVAKNGRVKHVTFDPDVWRQLES,0.809
13,DDSLEKELEDIMRTGNFEELVKNADKDARAQYGNRTYHGREDAKEAAHQFRKHVDSIQIDSIHRHNGHMEVDMQVNINGRNVRATMTIEAHNGRVKQFRVEVTDEEFHKTLHRLLE,0.929
14,DDSLLDKVKEIFSVMRTGDPDKMKKLADKHATFEVGDKQIHGREELSEIMRRRRDEQKVSVEVKRVKKQGDTANIVFTVTNNHNGTPKVETQTMTVNMSNGKITYVNVQNDK,-0.007
15,DDSMVRLAHTVIDNWRQGDEKKAMELLDPNARAEIGDKTIHGREQMSDEIRKQRTEQRLDIKVKRLEDRPGHVVIDAENTNSKNGRPRTNRVQIHLTAQGDKLKRLRIQNDS,-0.05
16,DDSNNEIVKHMLEALHTGDPDQMSRLVDPNVRVNVGNKEVHGREQQREEVEKIKRDMRFEADLDDYHVHGEHLEFKVTYKAQINGKPYHFSADLNLTFHNGKLQSESARMDQHELEKLDG,0.029
17,DDSQVRSALEQAKTGNFQNLRNQLDPNAHVRVGDKTLNGKEEAVSYMQEFRDQVDRIRVDSVTTQGEKAVADLTVVINGHRVRFELVVNIRNGRAREVELRSTSEEIKKHLEHLDS,0.481
18,DDSREIEKFMTTVERALRRGDEHKLREMFPEDAHLEVGDKTYRGRENVVEANKEWANKFDHIHIRYDKLRVDNGKFDITITYVLKHNGRQETRRAKVVAHKTNGQVKMKSVFDT,0.482
19,DDSRRATEFNKQYREVFRTGDPRKFEDYMDPNARAHYGDKELHGREQLRNYWKELTDNADHLDVQIHHLHVSGDDVNVDFQWNIDVNGENVQRKVVIIARLENGQVRAKQIVEK,-0.143
20,DDSVKRLIKNLLKAWEHGDEHRARELMDEDARVTYGDQQVTGREEVARHHATRQKEIRYSIENMDVKVQGNHVEIHVEQQQTHNGEPKQFRYTMDVEARNGKIKRFEIQERR,0.187
21,DDSVMTAVKELLTNIQSGDPDKIQRYLDPNARMQVGDKEIHGRENIAKEIHDQNNEMEVDIEVKHVEVTGDTAIVHADVQEFHNGRPDTFHLVVRAKQDNGKMTSVVFEKRK,-0.268
22,DDTAAEVLKEQLDVLKQGDPDRVNQLVDPNAKRHVGDKNYRGMNSMADEDAQKMRNSRIKYTHWEQERSGDKVRVVVVYIEDHNGEPDTHRREFVFKASNGRFHQLNQDDDQ,-0.232
23,DDTAIRIFEELQKAVENGDEREVQENLDEDAKIEYGNRTLHGREKAAKDYKRMHDQMEFTYDMKHFTVQGDKARLKVEYKATVNGKPYSDSVDVEVKIKNGKIKYIRFQFDEHKQRERDS,0.894
24,DDTAMRVYQEIVKALQTGDPDKVRNNFDENVEYHVGDTKVHGRDEALERIKKRMDEIRVEIQLQKVETQGDKVIVRARYVNETNGKPKQSNNNIIFKVKNGKMTHMQEREDS,-0.045
25,DDTARQVYEDAADALRTGDEDEFRKQVDKDVRLTYGDKFIHGREEAARQLRDRQSTMRDEWDINEVQVRNGTINVDANKRNHENGQPQDVNLRVEVHAHNGKLTELRYTVQQ,-0.177
